This note sets out measurements from article PMC5820281.

In assay [1] the target is protein A/G (Ultralink protein A/G beads). Put plainly: luciferase pull-down (protein A/G beads, luciferase-tagged Fc-IgG). To be noted: read off a plot.
In assay [2] the target is GST-Ro52-Δ2 (C-terminal fragment of Ro52/TRIM21 fused to glutathione S-transferase) (UniProt P19474). Put plainly: luciferase pull-down (bead-immobilized GST fusion protein, luciferase-tagged Fc-IgG). To be noted: read off a plot.
For assay [3], the target named is Renilla luciferase-IgG1 Fc fusion protein (Fc region of IgG1, amino acids 233–449). Described as above. To be noted: parent: est. 240000; read off a plot.

Sequence of UniProt P19474 (P19474 277-475, stated change not applied): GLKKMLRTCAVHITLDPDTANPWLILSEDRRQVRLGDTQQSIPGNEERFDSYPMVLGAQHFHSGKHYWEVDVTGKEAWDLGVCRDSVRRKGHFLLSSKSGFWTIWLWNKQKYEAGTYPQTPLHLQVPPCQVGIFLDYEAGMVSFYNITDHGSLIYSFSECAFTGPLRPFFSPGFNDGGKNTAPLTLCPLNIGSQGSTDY

Regarding “Renilla luciferase-IgG1 Fc fusion protein (Fc region of IgG1, amino acids 233–449) H435del; N436del; H437del”, the response stood at 3600 LU in assay [1] and 4200 LU in assay [2].
Take “GST-Ro52-Δ2 (C-terminal fragment of Ro52/TRIM21 fused to glutathione S-transferase) (from UniProt P19474) D355A”: the response in assay [3] is 3900 LU.
